Assay results from paper PMC5117808 (Nature chemical biology, 2016).
No end group written: not given here.

B1: MdnB (ATP-grasp macrocyclase, microviridin J pathway, Microcystis aeruginosa MRC) (enzyme)
chain: MKESPKVVLLLTHSGDFFTIDRVAEAIEKKGATPFRLDTDKFPLEVQLTAQFNGKKSFYQLSYNHQSIDSEQVQSVWTRRIWQPELTGDLDPQFREVCVRESQTTLAGFWDSLRSARWLDNLAQIEKAKNKLLQLRLASEVGLIIPPTLVTNNPDAAREFFSQVQGRMVSKLLTAIARSMESPEFFLYTSRVKAEDLEEAESLRYCPMVFQAEIPKQLELRVVVVNGQTFVGALESSQYNNSAVDWRRPGIDPGAWQHHTLPDSLLQQLQIFMANLGLNFGAFDFILTPGGEYVFLEVNPGGEWGMLERDLDLPISQAIADFLVFG

Key:
[1] = biological target: T1, MdnC (Microcystis aeruginosa MRC, UniProt B2G3D0); format: binding; conditions: ITC
T1 sequence (B2G3D0 1-324): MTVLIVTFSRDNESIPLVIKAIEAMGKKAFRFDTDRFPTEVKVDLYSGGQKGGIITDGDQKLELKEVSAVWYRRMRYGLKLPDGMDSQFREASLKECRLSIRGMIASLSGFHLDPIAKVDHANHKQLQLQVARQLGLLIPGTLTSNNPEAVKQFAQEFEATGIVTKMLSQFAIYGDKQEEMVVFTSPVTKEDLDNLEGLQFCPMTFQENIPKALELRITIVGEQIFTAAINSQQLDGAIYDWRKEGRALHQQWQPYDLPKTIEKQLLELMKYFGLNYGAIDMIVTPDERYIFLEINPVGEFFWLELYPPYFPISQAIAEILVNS

[2] = biological target: T2, MdnB (Microcystis aeruginosa MRC, UniProt B2G3C9); experiment: ITC binding of MdnA peptides to MdnB
T2 sequence (B2G3C9 1-326): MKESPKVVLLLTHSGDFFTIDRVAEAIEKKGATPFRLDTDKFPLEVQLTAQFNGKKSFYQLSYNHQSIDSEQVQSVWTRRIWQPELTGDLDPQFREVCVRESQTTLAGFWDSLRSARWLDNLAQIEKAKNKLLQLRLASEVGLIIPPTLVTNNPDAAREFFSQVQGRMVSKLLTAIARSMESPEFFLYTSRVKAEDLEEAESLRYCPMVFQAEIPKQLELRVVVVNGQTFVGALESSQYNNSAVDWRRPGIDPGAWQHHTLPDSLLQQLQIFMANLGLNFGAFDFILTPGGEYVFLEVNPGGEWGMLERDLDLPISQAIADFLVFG

[3] = biological target: MdnC (ATP-grasp macrocyclase, microviridin J pathway, Microcystis aeruginosa MRC) (Microcystis aeruginosa MRC); experiment: ITC
[4] = biological target: MdnC (ATP-grasp macrocyclase, microviridin J pathway, Microcystis aeruginosa MRC) (Microcystis aeruginosa MRC); experiment: SEC + native gel or EMSA
[5] = biological target: MdnC (Microcystis aeruginosa MRC); experiment: crystal structure
[6] = biological target: MdnC (Microcystis aeruginosa MRC); experiment: SEC
[7] = tested on: Daphnia; conditions: through inhibition of serine-type proteases; cited from earlier work
[8] = biological target: B1; experiment: ITC
[9] = biological target: the molecule itself; experiment: SEC + native gel or EMSA

With Nc1ncnc2c1ncn2[C@@H]1O[C@H](COP(=O)(O)OP(=O)(O)OP(=O)(O)O)[C@@H](O)[C@H]1O [ATP] the “Binding to MdnC, in words” value [1] was “neither MdnC nor MdnB show an observable heat change” and the “Binding to MdnB, in words” value [2] was “neither MdnC nor MdnB show an observable heat change”.

“Full-length MdnA (residues 1-49), microviridin J precursor peptide (from UniProt B2G3C8 1-49)” gave a Kd [3] of 112 nM.

“MdnC (ATP-grasp macrocyclase, microviridin J pathway, Microcystis aeruginosa MRC) (enzyme)” gave a stoichiometry N [4] of 2.

MdnC (enzyme) showed a stoichiometry N [5] of 2 and a stoichiometry N [6] of 2.

In the case of microviridin J, the “Effect on Daphnia” value [7] is given as “lethal molting disruption”.

MAYPNDQQGKALPFFARFLSVSKEESSIKSPSPDHEISTRKYPSDWEEW [Full-length MdnA (residues 1-49), microviridin J precursor peptide] showed a Kd [8] of 4800 ± 1000 nM.

Work on MAYPNDQQGKALPFFARFLSVSKEESSIKSPSPDHEISTRKYPSDWEEW (two macrolactone rings, Thr39/Asp45 and Ser43/Glu47 (installed by MdnC)) [MdnAΔ2, dicyclic intermediate of MdnA] yielded a Kd [8] of 6400 ± 2000 nM.

In the case of B1, the “stoichiometry N” value [9] is reported as 2.

GKALPFFARFLSVS (not fully specified) [MdnA[9-22], minimal peptide containing the conserved region of the leader peptide] gave a Kd [3] of 308 nM.

Work on MAYPNDQQGKALPFFARFLSVSKEESSIKSPSPDH (not fully specified) yielded a Kd [3] of 146 nM.

With MAYPNDQQGKALPFFARFLSVSKEESSIKSPSPDH the Kd [8] was 2800 ± 800 nM.
